Reference: patent US8247376B2, “NGAL for reduction and amelioration of ischemic and nephrotoxic injuries” (The Trustees of Columbia University, priority 2004, dated 2012)
Entries after “also recorded” stand apart in the source; their conditions may differ. Where a name gives a salt, the structure may show the parent alone.

What was measured:
[1] = Cofactor-dependent ^55Fe binding to NGAL (10 kDa filter retention); details: for inhibition of ^55Fe capture by apo-NGAL+urine: competitor: 1000-fold unlabeled iron citrate or 50-fold iron-saturated enterochelin; for retention of ^55Fe: washed on 10 kDa filter
Experimental: The urine fraction was obtained by passing fresh urine sequentially through 10 kDa and 3 kDa membranes (YM-10 and YM-3, Amicon). The mixture was then washed three times on 10 kDa membrane (YM-10, Amicon). Iron-free enterochelin-loaded NGAL (rather than NGAL without siderophore) served as a positive control for iron capture. Ferric citrate (1 mM) or iron-loaded enterochelin (Sid:Fe, 50 μM) were used as competitors of ^55Fe binding.

[2] = test system: mouse model of ATN or ischemia/reperfusion injury; test: Mouse model of ATN (30 min clamp, contralateral nephrectomy): plasma creatinine; type: in vivo, mice; details: for protection against ATN (creatinine, FIG. 17A): mice, 30 minutes of ischemia, 10 μg protein or single dose, 15 min prior to ischemia
Experimental: Male C57BL/6 mice (20-25 gr; Charles River) were anesthetized with intraperitoneal pentobarbital (50 mg/kg) and placed on a heating pad under a warming light to maintain 37© core body temperature. Kidneys were exposed through an abdominal section and the right kidney was either removed or its vascular pedicle and ureter ligated. The vascular pedicle of the left kidney or both kidneys was clamped by a microaneurysm clip (Kent Scientific) for 30 minutes after right nephrectomy. This period of ischemia generated reproducible renal injury but minimized mortality. During the procedure, PBS (0.5 ml) was used to dampen the peritoneum. The animal was closed with 5-0 Nylon. Saline, NGAL, retinol-loaded retinol binding protein (RBP), enterochelin, or desferroxamine mesylate (DFO) were injected into the peritoneum or subcutaneously 15 min. prior to ischemia or 1-2 hr after reperfusion.
After 6 or 24 hr of reperfusion, heparinized plasma, urine and kidney samples were obtained to measure NGAL (polyclonal 1:500), Heme oxygenase-1 (Stressgen, 1:2000), E-cadherin (BD Transduction Labs, 1:2000), N-cadherin (BD Transduction Labs, 1:3000) and GAPDH (Chemicon International, 1:3000) using immunoblots. Plasma was also used for creatinine and blood urea nitrogen colorimetric assays. Sagittal sections of the kidney were fixed in 4% formalin, or were snap frozen for mRNA and protein analysis. Paraffin-embedded sections (5 μm) were stained with hematoxylin-eosin or by an in situ kit (Fluorescein-TUNEL, Roche) for apoptotic nuclei or for total nuclei (Toprol, Molecular Probes). For cell proliferation analysis, BrdU was injected into the peritoneum 1 hour before sacrifice, and cryostat sections were stained with anti-BrdU (Roche) according to the manufacturer.

[3] = NGAL trafficking after intraperitoneal or subcutaneous injection; type: in vivo, mice
Text: (§1) Recombinant human and mouse GST-NGAL were expressed in BL21 or XL1-Blue strains of E. coli (Stratagene) with additional ferric sulfate (50 Micro Molar, Sigma-Aldrich Co.). NGAL was isolated using Glutathione Sepharose 4B beads (Amersham Biosciences), eluted by thrombin cleavage (Sigma-Aldrich Co.; St. Louis, Mo.) and then further purified by gel filtration (Superdex75, SMART system, Amersham Biosciences) and examined by Coomassie gels (Biorad). BL-21 derived NGAL was loaded with iron free or iron saturated enterochelin, a siderophore (EMC Microcollections) using a 5 fold molar excess. Unbound siderophore (0.7 KD) was removed by washing (Microcon YM-10) with PBS. To produce ^55Fe or gallium (Ga) loaded NGAL we incubated the iron-free enterochelin NGAL complex with equimolar ^55Fe (18mCi) or Ga in NaCl (150 mM) Hepes (20 mM; pH 7.4) and the complex was washed 3 times (10K filter). Iodobeads (Pierce) were used to label NGAL with ^125I and unincorporated ^125I was removed by gel filtration (PD-10 column) followed by extensive dialysis (7 kDa cut off membrane, Pierce) against PBS. Alexa-568 and fluorescein isothiocyanate (Molecular Probes) was coupled to NGAL, according to the manufacturer, and then extensively dialyzed. Protein concentration was determined by Coomassie gels in comparison with bovine serum albumin standard.
(§2) To detect delivery of NGAL to the kidney rNGAL (10 or 100 μg), Alexa 568-NGAL (100 μg), ^125I-NGAL ([…], 2×10^6 cpm), or ^55Fe loaded enterochelin-NGAL (10 μg, 1×10^6 cpm) was injected into the peritoneum and blood, urine, kidney and liver samples were obtained. NGAL was detected by immunoblot. Alexa-568 NGAL was detected by confocal microscopy (LSM Meta Detector) and NGAL mediated iron trafficking was detected by scintillation counter and by light microscopic radioautography of Epon embedded kidneys. Slides were exposed to emulsion (Polyscience) for 1 week and then developed with Microdol and counterstained with Toluidine blue. To detect lysosomes in the proximal tubule, mice were injected with Fluorescein Dextran (46 kD; 0.5 mg; Sigma) 24 hours before Alexa 568 NGAL injections. LAMP1 (Santa Cruz) was detected in cryostat sections of 4% paraformaldehyde fixed kidneys.

[4] = Distribution and radioautography of ^55Fe after ^55Fe:Sid:NGAL injection; type: in vivo, mice; details: for Silver Grains (% Total): kidney radioautography; for ^55Fe recovered: one hour after 10 μg intraperitoneal
Text: as §1, §2

Ferric citrate [iron citrate, reference compound]
inhibition of ^55Fe capture by apo-NGAL+urine [1]: inhibited | inhibition of ^55Fe capture by apo-NGAL+urine ([1]; listed as iron-citrate): blocked

CC(=O)N(O)CCCCCNC(=O)CCC(=O)N(O)CCCCCNC(=O)CCC(=O)N(O)CCCCCN [DFO, desferrioxamine mesylate, reference compound]
protection against ATN (creatinine, FIG. 17A) [2]: failed to protect against ATN; also recorded: ineffective

B1: Alexa-568 NGAL: NGAL coupled to Alexa-568 fluorescent dye (conjugate, UniProt P11672 21-200, looked up)
Neutrophil …: QDSTQNLIPAPSLLTVPLQPDFRSDQFRGRWYVVGLAGNAVQKKTEGSFTMYSTIYELQENNSYNVTSILVRDQDQGCRYWIRTFVPSSRAGQFTLGNMHRYPQVQSYNVQVATTDYNQFAMVFFRKTSENKQYFKITLYGRTKELSPELKERFTRFAKSLGLKDDNIIFSVPTDQCIDN
modifications: Alexa-568 dye
notes: NGAL coupled to Alexa-568 fluorescent dye
localization of fluorescent NGAL in kidney ([3]; by one hour after injection): localized to large vesicles in the subapical domain of the cortical proximal tubule | NGAL vesicles also containing dextran (lysosomes) ([3]; one hour after injecting, fluorescein-dextran the day before): 33%

B2: holo-NGAL: NGAL cloned in XL-1Blue bacteria; contains enterochelin and is iron-loaded (protein, UniProt P11672 21-200, looked up)
Neutrophil …: QDSTQNLIPAPSLLTVPLQPDFRSDQFRGRWYVVGLAGNAVQKKTEGSFTMYSTIYELQENNSYNVTSILVRDQDQGCRYWIRTFVPSSRAGQFTLGNMHRYPQVQSYNVQVATTDYNQFAMVFFRKTSENKQYFKITLYGRTKELSPELKERFTRFAKSLGLKDDNIIFSVPTDQCIDN
modifications: enterochelin, iron-loaded
notes: NGAL cloned in XL-1Blue bacteria; contains enterochelin and is iron-loaded
protection against ATN (creatinine, FIG. 17A) [2]: rescues renal function | protection against ATN (creatinine, FIG. 17A) ([2]; listed as holo-Ngal): protected the kidney

B3: apo-NGAL:Sid:Fe: BL-21-cloned NGAL reconstituted with iron-saturated enterochelin (protein, UniProt P11672 21-200, looked up)
Neutrophil …: QDSTQNLIPAPSLLTVPLQPDFRSDQFRGRWYVVGLAGNAVQKKTEGSFTMYSTIYELQENNSYNVTSILVRDQDQGCRYWIRTFVPSSRAGQFTLGNMHRYPQVQSYNVQVATTDYNQFAMVFFRKTSENKQYFKITLYGRTKELSPELKERFTRFAKSLGLKDDNIIFSVPTDQCIDN
modifications: iron-saturated enterochelin
notes: BL-21-cloned NGAL reconstituted with iron-saturated enterochelin
protection against ATN (creatinine, FIG. 17A) [2]: protective effect | protection against ATN (creatinine, FIG. 17A) ([2]; listed as apo-Ngal:Sid:Fe): enhanced the protection of the kidney and blunted the rise in serum creatinine | retention of ^55Fe ([1]; in buffer): not

B4: apo-NGAL: NGAL cloned in BL-21 bacteria; does not contain enterochelin (siderophore free) (protein, UniProt P80188 21-198, looked up)
Neutrophil …: QDSTSDLIPAPPLSKVPLQQNFQDNQFQGKWYVVGLAGNAILREDKDPQKMYATIYELKEDKSYNVTSVLFRKKKCDYWIRTFVPGCQPGEFTLGNIKSYPGLTSYLVRVVSTNYNQHAMVFFKKVSQNREYFKITLYGRTKELTSELKENFIRFSKSLGLPENHIVFPVPIDQCIDG
modifications: siderophore-free
protection against ATN (creatinine, FIG. 17A) [2]: minimally active | protection against ATN (creatinine, FIG. 17A) ([2]; listed as apo-Ngal): reduced level of protection | retention of ^55Fe ([1]; in buffer): failed to trap ^55Fe and not | retention of ^55Fe ([1]; with mouse urine fraction (<3,000 Da)): retains ^55Fe

B5: apo-NGAL:Sid: BL-21-cloned NGAL reconstituted with iron-free enterochelin (protein, UniProt P80188 21-198, looked up)
Neutrophil …: QDSTSDLIPAPPLSKVPLQQNFQDNQFQGKWYVVGLAGNAILREDKDPQKMYATIYELKEDKSYNVTSVLFRKKKCDYWIRTFVPGCQPGEFTLGNIKSYPGLTSYLVRVVSTNYNQHAMVFFKKVSQNREYFKITLYGRTKELTSELKENFIRFSKSLGLPENHIVFPVPIDQCIDG
modifications: complexed with iron-free enterochelin
notes: BL-21-cloned NGAL reconstituted with iron-free enterochelin
protection against ATN (creatinine, FIG. 17A) [2]: protective effect | protection against ATN (creatinine, FIG. 17A) ([2]; listed as apo-Ngal:Sid): enhanced the protection of the kidney and blunted the rise in serum creatinine | retention of ^55Fe ([1]; in buffer): retained

B6: ^55Fe:Sid:NGAL: iron-free enterochelin-NGAL incubated with ^55Fe at 1:1 stoichiometry (protein, UniProt P80188 21-198, looked up)
Neutrophil …: QDSTSDLIPAPPLSKVPLQQNFQDNQFQGKWYVVGLAGNAILREDKDPQKMYATIYELKEDKSYNVTSVLFRKKKCDYWIRTFVPGCQPGEFTLGNIKSYPGLTSYLVRVVSTNYNQHAMVFFKKVSQNREYFKITLYGRTKELTSELKENFIRFSKSLGLPENHIVFPVPIDQCIDG
modifications: enterochelin loaded with 55Fe
notes: iron-free enterochelin-NGAL incubated with ^55Fe at 1:1 stoichiometry
Relative SA (% grains/% point count) ([4]; Apical MB): 2.21 | Relative SA (% grains/% point count) ([4]; Basal MB): 0.59 | Relative SA (% grains/% point count) ([4]; Cytosol): 1 | Relative SA (% grains/% point count) ([4]; Glomerular Tuft): 0.11 | Relative SA (% grains/% point count) ([4]; Interstitium): 0.3 | Relative SA (% grains/% point count) ([4]; Lumen): 1.43 | Relative SA (% grains/% point count) ([4]; Nucleus): 0.56 | Silver Grains (% Total) ([4]; Apical MB): 12.91 % Total | Silver Grains (% Total) ([4]; Basal MB): 3.81 % Total | Silver Grains (% Total) ([4]; Cytosol): 48.98 % Total | Silver Grains (% Total) ([4]; Glomerular Tuft): 0.13 % Total | Silver Grains (% Total) ([4]; Interstitium): 3.71 % Total | Silver Grains (% Total) ([4]; Lumen): 26.46 % Total | Silver Grains (% Total) ([4]; Nucleus): 4.02 % Total | ^55Fe recovered ([4]; kidney): 55% | ^55Fe recovered ([4]; liver): 2.4% | ^55Fe recovered ([4]; plasma): 4.3% | ^55Fe recovered ([4]; spleen): 0.2% | ^55Fe recovered ([4]; urine): 0.6%

B7: apo-NGAL:Sid:Ga: gallium-loaded enterochelin-NGAL complex (protein, UniProt P80188 21-198, looked up)
Neutrophil …: QDSTSDLIPAPPLSKVPLQQNFQDNQFQGKWYVVGLAGNAILREDKDPQKMYATIYELKEDKSYNVTSVLFRKKKCDYWIRTFVPGCQPGEFTLGNIKSYPGLTSYLVRVVSTNYNQHAMVFFKKVSQNREYFKITLYGRTKELTSELKENFIRFSKSLGLPENHIVFPVPIDQCIDG
modifications: enterochelin loaded with gallium
notes: gallium-loaded enterochelin-NGAL complex
creatinine ([2]; gallium complex 15 minutes prior to ischemia): 3.17±0.1 | protection against ATN (creatinine, FIG. 17A) [2]: ineffective | protection against ATN (creatinine, FIG. 17A) ([2]; listed as apo-Ngal:Sid:Ga): not protected
